{
  "source": "patent US6982082",
  "molecular_target": "modified CypA (S99T, F113G, C115M) (CypAgtm), overexpressed in E. coli and purified (UniProt P62937)",
  "assay": "direct fluorescence binding assay, purified CypAgtm",
  "data": [
    {"substance": "alpha-cyclopentyl, sarcosine11-CsA (CpSar11-CsA) (peptide)", "values": [
      {"measurement": "Kd", "value": 9, "unit": "nM"}
    ]}
  ]
}
